# Patent US20250066503A1, “CELL INJURY INDUCING THERAPEUTIC DRUG FOR USE IN CANCER THERAPY” (CHUGAI SEIYAKU KABUSHIKI KAISHA, priority 2016, published 2025)
# Entries after “also recorded” stand apart in the source; their conditions may differ.
# B1: antibody-39: bispecific antibody; CD3-binding variable region SEQ ID NO: 433, GPC-binding SEQ ID NO: 434, common L chain SEQ ID NO: 435 (antibody)
# heavy 1: QVQLVQSGAEVKKPGASVKVSCKASGYTFTDYEMHWIRQPPGQGLEWIGAIDPKTGDTAYSQKFKGRVTLTADKSTSTAYMELSSLTSEDTAVYYCTRFYSYTYWGQGTLVTVSS
# heavy 2: EVQLVETGGSLVQPGKSLKLTCATSGFTFSNAWMHWVRQSPEKQLEWVAQIKAKSNNYATYYAESVKGRFTISRDDSKSNIYLQMNSLKEEDTAVYYCRYVHYGAYYGVDAWGQGTSVTVSS
# light: DIVMTQSPLSLPVTPGEPASISCRSSQSLVHSNRNTYLHWYQQKPGQAPRLLIYKVSNRFSGVPDRFSGSGSGTDFTLKISRVEAEDVGVYYCGQGTQVPYTFGQGTKLEIK
# modifications: An artificially generated sequence
# B2: GPC3_ERY22_rCE115: heterodimeric bispecific antibody of GL4-ERY22_Hk, H0000-ERY22_L, rCE115H-ERY22_Hh, rCE115L-k0 (SEQ ID NOs: 47-50) (antibody)
# heavy 1: DIVMTQSPLSLPVTPGEPASISCRSSQSLVHSNRNTYLHWYQQKPGQAPRLLIYKVSNRFSGVPDRFSGSGSGTDFTLKISRVEAEDVGVYYCSQNTHVPPTFGQGTKLEIKSSASTKGPSVFPLAPSSKSTSGGTAALGCLVKDYFPEPVTVSWNSGALTSGVHTFPAVLQSSGLYSLSSVVTVPSSSLGTQTYICNVNHKPSNTKVDKKVEPKSCDKTHTCPPCPAPEAAGGPSVFLFPPKPKDTLMISRTPEVTCVVVDVSHEDPEVKFNWYVDGVEVHNAKTKPREEQYASTYRVVSVLTVLHQDWLNGKEYKCKVSNKALPAPIEKTISKAKGQPREPQVCTLPPSRDELTKNQVSLWCLVKGFYPSDIAVEWESNGQPENNYKTTPPVLDSDGSFFLYSKLTVDKSRWQQGNVFSCSVMHEALHNHYTQKSLSLSPHHHHHHHH
# light 1: QVQLVQSGAEVKKPGASVKVSCKASGYTFTDYEMHWIRQPPGQGLEWIGAIDPKTGDTAYSQKFKGRVTLTADKSTSTAYMELSSLTSEDTAVYYCTRFYSYTYWGQGTLVTVSSASVAAPSVFIFPPSDEQLKSGTASVVCLLNNFYPREAKVQWKVDNALQSGNSQESVTEQDSKDSTYSLSSTLTLSKADYEKHKVYACEVTHQGLSSPVTKSFNRGEC
# heavy 2: EVQLVETGGSLVQPGKSLKLTCATSGFTFSNAWMHWVRQSPEKQLEWVAQIKAKSNNYATYYAESVKGRFTISRDDSKSNIYLQMNSLKEEDTAVYYCRYVHYGAYYGVDAWGQGTSVTVSSASTKGPSVFPLAPSSKSTSGGTAALGCLVKDYFPEPVTVSWNSGALTSGVHTFPAVLQSSGLYSLSSVVTVPSSSLGTQTYICNVNHKPSNTKVDKKVEPKSCDKTHTCPPCPAPEAAGGPSVFLFPPKPKDTLMISRTPEVTCVVVDVSHEDPEVKFNWYVDGVEVHNAKTKPREEQYASTYRVVSVLTVLHQDWLNGKEYKCKVSNKALPAPIEKTISKAKGQPREPQVYTLPPSRCELTKNQVSLSCAVKGFYPSDIAVEWESNGQPENNYKTTPPVLDSDGSFFLVSKLTVDKSRWQQGNVFSCSVMHEALHNHYTQKSLSLSPDYKDDDDK
# light 2: DVVMTQTPVSMSVSLGGQVSISCRSSQSLVHNNGNTYVSWYIQKPSQSPQLLIYKVSNRFSGISDRFSGSGSGTDFTLKISRVEPDDLGVYYCGQGTQDPYTFGAGTKLELKRTVAAPSVFIFPPSDEQLKSGTASVVCLLNNFYPREAKVQWKVDNALQSGNSQESVTEQDSKDSTYSLSSTLTLSKADYEKHKVYACEVTHQGLSSPVTKSFNRGEC
# modifications: An artificially generated sequence
# B3: GPC3_ERY27_hCE115: humanized anti-human CD3ε chain and anti-human GPC3 bispecific antibody (SEQ ID NOs: 54, 55, and 56) (protein)
# chain 1: QVQLVQSGAEVKKPGASVKVSCKASGYTFTDYEMHWIRQPPGQGLEWIGAIDPKTGDTAYSQKFKGRVTLTADKSTSTAYMELSSLTSEDTAVYYCTRFYSYTYWGQGTLVTVSSASTKGPSVFPLAPCSRSTSESTAALGCLVKDYFPEPVTVSWNSGALTSGVHTFPAVLQSSGLYSLSSVVTVPSSSLGTKTYTCNVDHKPSNTKVDKRVESKYGPPCPPCPAPEFRGGPKVFLFPPKPKDTLMISRTPEVTCVVVDVSQEDPEVQFNWYVDGVEVHNAKTKPREEQFASTYRVVSVLTVLHQDWLNGKEYKCKVSNKGLPSSIEKTISKAKGQPREPQVYTLPPSQKEMTKNQVSLTCLVKGFYPSDIAVEWESNGQPENNYKTTPPVLDSDGSFFLYSRLTVDKSRWQEGNVFSCSVMHEALHNRYTQKSLSLSLHHHHHHHH
# chain 2: QVQLVESGGGVVQPGRSLRLSCAASGFTFSNAWMHWVRQAPGKGLEWVAQIKAKSNNYATYYAESVKGRFTISRDDSKNSLYLQMNSLKTEDTAVYYCRYVHYGAYYGVDAWGQGTTVTVSSASTKGPSVFPLAPCSRSTSESTAALGCLVKDYFPEPVTVSWNSGALTSGVHTFPAVLQSSGLYSLSSVVTVPSSSLGTKTYTCNVDHKPSNTKVDKRVESKYGPPCPPCPAPEFRGGPKVFLFPPKPKDTLMISRTPEVTCVVVDVSQEDPEVQFNWYVDGVEVHNAKTKPREEQFASTYRVVSVLTVLHQDWLNGKEYKCKVSNKGLPSSIEKTISKAKGQPREPQVYTLPPSQEEMTKNQVSLTCLVKGFYPSDIAVEWESNGQPENNYKTTPPVLDSDGSFFLYSRLTVDKSRWQEGNVFSCSVMHEALHNHYTQESLSLSLDYKDDDDK
# chain 3: DIVMTQSPLSLPVTPGEPASISCRSSQSLVHSNRNTYLHWYQQKPGQAPRLLIYKVSNRFSGVPDRFSGSGSGTDFTLKISRVEAEDVGVYYCGQGTQVPYTFGQGTKLEIKRTVAAPSVFIFPPSDEQLKSGTASVVCLLNNFYPREAKVQWKVDNALQSGNSQESVTEQDSKDSTYSLSSTLTLSKADYEKHKVYACEVTHQGLSSPVTKSFNRGEC
# modifications: An artificially generated sequence
# How the values were obtained:
# [1] = systemic administration; non-small-cell lung cancer patients; Phase I; cited from earlier work
# PC-10 xenograft tumor = experiment: In vivo drug efficacy, NOD scid/T cell-injected model, PC-10; parameters: species or system NOD scid mice; details: 1 mg/kg once through the tail vein, compared to the vehicle-administered group
# Description: Methods called an NOD scid/T cell-injected model, a humanized NOG mouse model, and a human CD3εδγ gene-modified mouse model were used in the in vivo drug efficacy evaluation. Assay using an NOD scid/T cell-injected model was performed as follows. […] T cells expanded by culturing human PBMCs in vitro were injected into the NOD scid mice with confirmed tumor establishment. The mice were treated by administering bispecific antibody-38 and bispecific antibody-30, -31, -32, or -33. Assay using a humanized NOG mouse model was performed as follows. CD34-positive hematopoietic stem cells derived from umbilical cord blood were transplanted into NOG mice by tail vein injection. Human T cells are constantly supplied in the mice, which are called humanized NOG mice. The PC-10 cell line was transplanted into humanized NOG mice. The humanized NOG mice with confirmed establishment of PC-10 tumor were treated by administering antibody-38. Assay using a human CD3εδγ gene-modified mouse model was performed as follows. Cells of mouse-derived cell line forced to express human GPC3 were transplanted into a human CD3εδγ gene-modified mouse model, which had been prepared according to Reference Example 10. The human CD3εδγ gene-modified mice with confirmed tumor establishment were treated by administering antibody-38. […]
# [2] = test system: NCI-H446 human cancer cell line; experiment: Cytotoxic activity (cell proliferation inhibition rate, xCELLigence) with human PBMCs; format: cell-based; details: human PBMCs as effector cells; NCI-H446 target cells; 72 hours
# Description: Using a syringe preloaded with 100 μL of 1,000 units/mL heparin solution (Novo Heparin for injection, 5000 units, Novo Nordisk), 50 mL of peripheral blood was collected from each healthy volunteer (adult individual). This peripheral blood was diluted two-fold in PBS(−), divided into four aliquots, and added into a Leucosep tube for lymphocyte separation (Cat. No. 227290, Greiner Bio-One) that had been loaded with 15 mL of Ficoll-Paque PLUS and subjected to centrifugation in advance. This separation tube was centrifuged (at 2150 rpm for ten minutes at room temperature), and then the mononuclear cell fraction was collected. The cells in the mononuclear cell fraction were washed once with the Dulbecco's Modified Eagle's Medium containing 10% FBS (manufactured by SIGMA, hereinafter referred to as 10% FBS/D-MEM), and then prepared to have a cell density of 4×10^6 cells/mL using 10% FBS/D-MEM. The cell suspension prepared this way was used as the human PBMC solution in the experiment below.
# Cytotoxic activity was assessed by the rate of cell proliferation inhibition using the xCELLigence Real-Time Cell Analyzer (Roche Diagnostics). […]
# Cytotoxic activity was measured by the method described in Reference Example 1-3-2.
# CDR and FR were determined according to the Kabat definition (Kabat numbering). […]
Molecule,cytotoxic activity (T-cell-dependent cellular cytotoxicity) [2],further results
catumaxomab,,maximum tolerable dose [1]: 5 g/body
B1,,anti-tumor effect (PC-10 xenograft tumor): evident anti-tumor effect
B2,very strong activity,
B3,reduction of the activity; also recorded: lower,
